The text below walks through data of US20230293738A1 (Y MABS THERAPEUTICS, published 2023).

The target in one assay is T1, recombinant mouse B7-H3 (mouse, UniProt Q8VE98 29-244, limits assumed).
T1 sequence (looked up): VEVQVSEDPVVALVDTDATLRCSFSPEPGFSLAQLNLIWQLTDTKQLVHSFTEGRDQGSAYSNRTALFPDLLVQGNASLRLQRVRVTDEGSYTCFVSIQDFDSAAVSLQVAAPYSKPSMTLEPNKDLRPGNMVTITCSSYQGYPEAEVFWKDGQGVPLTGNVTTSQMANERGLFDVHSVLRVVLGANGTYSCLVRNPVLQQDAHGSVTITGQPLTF
The assay is described as follows: SPR, triplicate. In general terms: SPR reads the build-up and loss of mass on a sensor chip optically.

The next assay concerns the target T2, recombinant rat B7-H3 (rat, UniProt Q7TPB4 29-244, limits assumed).
T2 sequence (looked up): T1 sequence (looked up) with A33R, S62A, N131D, V156L, L214M
Nature of the assay: SPR, triplicate.

Assay [1] deals with T3, human 2Ig-B7H3 (B7H3-2Ig-His) (human, UniProt Q5ZPR3 29-466).
T3 construct: Recombinant His-tagged protein immobilised on a CM5 chip; also called 21g-B7H3; B7H3-21g-His; not shown: His tag
T3 sequence: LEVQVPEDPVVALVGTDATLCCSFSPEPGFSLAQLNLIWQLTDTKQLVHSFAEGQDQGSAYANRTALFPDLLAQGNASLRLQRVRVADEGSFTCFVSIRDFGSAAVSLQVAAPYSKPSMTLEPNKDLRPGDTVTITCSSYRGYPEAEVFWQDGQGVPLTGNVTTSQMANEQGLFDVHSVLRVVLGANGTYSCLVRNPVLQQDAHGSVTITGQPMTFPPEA
The assay is described as follows: SPR, Biacore T200, 2Ig-B7H3-His on CM5 chip, 1:1 fit; unconjugated 8H9, lot PHB800, Table 3 run.

Assay [2] addresses T3, human 2Ig-B7H3 (B7H3-2Ig-His). Nature of the assay: SPR, Biacore T200, 2Ig-B7H3-His on CM5 chip, 1:1 fit; unconjugated 8H9, lot S219, Table 5 run. As to the method: (§1) Both human B7H3 41g and 21g proteins were dissolved in PBS (Phosphate-Buffered Saline) to make 0.1 mg/ml stock solution and stored in −80° C. B7-H3 proteins were immobilized onto the CM5 sensor chip using Amine Coupling Kit. Both proteins were diluted to 10 ug/ml with 10 mM Sodium acetate, pH 5.0. […] A blank immobilized surface was used as a control
(§2) Binding Assays: [0143] 1. Antibodies were diluted in HBS-EP buffer (10 mM HEPES, 150 mM NaCl, 3 mM EDTA, 0.05% Surfactant P20, pH 7.4) at varying concentrations (25-50-100-200-400 nM) prior to analysis. […] 2. Samples (60 ul) were injected over the sensor surface at a flow rate of 30 ul/min over 2 min. [0145] 3. Following completion of the association phase, dissociation was monitored in HBS-EP buffer for 10 min at the same flow rate. […] 4. At the end of each cycle, the surface was regenerated using 10 mM NaOH at a flow rate of 50 ul/min over 2×15 sec.

The target in assay [3] is T4, human 4Ig-B7H3 (B7H3-4Ig-His) (human, UniProt Q5ZPR3 29-466).
T4 construct: Recombinant His-tagged protein immobilised on a CM5 chip; also called 41g-B7H3; human 4Ig-B7-H3 (dominant isoform); not shown: His tag
T4 sequence: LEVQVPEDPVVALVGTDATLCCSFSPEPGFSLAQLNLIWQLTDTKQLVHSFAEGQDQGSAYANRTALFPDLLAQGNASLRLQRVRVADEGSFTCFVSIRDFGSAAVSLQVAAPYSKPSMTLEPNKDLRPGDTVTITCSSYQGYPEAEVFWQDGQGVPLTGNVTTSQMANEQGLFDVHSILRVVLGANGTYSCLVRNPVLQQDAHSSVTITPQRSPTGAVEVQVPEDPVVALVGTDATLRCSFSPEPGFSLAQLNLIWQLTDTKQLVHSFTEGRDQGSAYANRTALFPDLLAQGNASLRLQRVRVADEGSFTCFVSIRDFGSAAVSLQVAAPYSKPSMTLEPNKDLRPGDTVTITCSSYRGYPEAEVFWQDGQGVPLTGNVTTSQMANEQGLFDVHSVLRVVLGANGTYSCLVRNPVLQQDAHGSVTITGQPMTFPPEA
The assay is described as follows: SPR, Biacore T200, 4Ig-B7H3-His on CM5 chip, 1:1 fit. As to the method:
as §1, §2

Where a chain is given by its changes, count along the chain named. Values joined by “and” are separate entries in the source; they are usually repeats but may differ in a detail not shown here. Equal entries are not always repeated. Some results are limits rather than exact numbers.

B1: 8H9 antibody comprising a light chain according to SEQ ID No.: 2 and heavy chain according to SEQ ID No.: 1 (antibody, mouse IgG1, kappa, V domains shown)
VH: QVQLQQSGAELVKPGASVKLSCKASGYTFTNYDINWVRQRPEQGLEWIGWIFPGDGSTQYNEKFKGKATLTTDTSSSTAYMQLSRLTSEDSAVYFCARQTTATWFAYWGQGTLVTVSA
VL: DIVMTQSPATLSVTPGDRVSLSCRASQSISDYLHWYQQKSHESPRLLIKYASQSISGIPSRFSGSGSGSDFTLSINSVEPEDVGVYYCQNGHSFPLTFGAGTKLELKR
notes: Unconjugated mouse IgG1 mAb; also called m8H9; murine 8H9
As a reminder, the Kd is a measure of binding affinity in units of concentration. Low values mean a tighter complex, high ones a looser complex. Usually koff stands for the rate constant with which the complex falls apart. For orientation: kon means a measure of how fast the partners come together. A low value points to slower complex formation. Take B1: in the assay with recombinant mouse B7-H3, the binding result is listed as “no binding (tested: 3 µg/mL)”. Further, the binding result with recombinant rat B7-H3 is “no binding (tested: 3 µg/mL)”. The molecule also had a Kd in assay [1] of less than 0.23 nM. In assay [2], this molecule came in with a dissociation constant Kd of less than 0.212 nM. Moreover, in assay [3], the Kd is 4.07 nM and 3.78 nM and 3.69 nM; the off-rate (koff) was 0.000102 s⁻¹ and 0.000101 s⁻¹ and 9.48e-05 s⁻¹; the on-rate (kon) was 25200 M⁻¹ s⁻¹ and 26700 M⁻¹ s⁻¹ and 25700 M⁻¹ s⁻¹; the “t ½” value is 1.88 h and 1.91 h and 2.03 h.
